Laboratory results taken from publication PMC4586593 (The Journal of General Physiology, 2015).
Values joined by “and” are separate entries in the source; they are usually repeats but may differ in a detail not shown here. Identical values can stand only once.

Biological target: actin from chicken pectoralis muscle (F-actin, TRITC-phalloidin labelled) (chicken, UniProt P68139 1-377)
Assay: method of Cremo and Geeves

Kd: 15 nM and 25 nM
B1: smooth muscle myosin S1 head (domain or fragment)
chain 1: SQKPLSDDEKFLFVDKNFVNNPLAQADWSAKKLVWVPSEKHGFEAASIKEEKGDEVTVELQENGKKVTLSKDDIQKMNPPKFSKVEDMAELTCLNEASVLHNLRERYFSGLIYTYSGLFCVVINPYKQLPIYSEKIIDMYKGKKRHEMPPHIYAIADTAYRSMLQDREDQSILCTGESGAGKTENTKKVIQYLAVVASSHKGKKDTSITQGPSFSYGELEKQLLQANPILEAFGNAKTVKNDNSSRFGKFIRINFDVTGYIVGANIETYLLEKSRAIRQAKDERTFHIFYYLIAGASEQMRNDLLLEGFNNYTFLSNGHVPIPAQQDDEMFQETLEAMTIMGFTEEEQTSILRVVSSVLQLGNIVFKKERNTDQASMPDNTAAQKVCHLMGINVTDFTRSILTPRIKVGRDVVQKAQTKEQADFAIEALAKAKFERLFRWILTRVNKALDKTKRQGASFLGILDIAGFEIFEINSFEQLCINYTNEKLQQLFNHTMFILEQEEYQREGIEWNFIDFGLDLQPCIELIERPTNPPGVLALLDEECWFPKATDTSFVEKLIQEQGNHAKFQKSKQLKDKTEFCILHYAGKVTYNASAWLTKNMDPLNDNVTSLLNQSSDKFVADLWKDVDRIVGLDQMAKMTESSLPSASKTKKGMFRTVGQLYKEQLTKLMTTLRNTNPNFVRCIIPNHEKRAGKLDAHLVLEQLRCNGVLEGIRICRQGFPNRIVFQEFRQRYEILAANAIPKGFMDGKQACILMIKALELDPNLYRIGQSKIFFRTGVLAHLEEERDLKITDVIIAFQAQCRGYLARKAFAKRQQQLTAMKVIQRNCAAYLKLRNWQWWRLFTKVKP
chain 2: CDFSEEQTAEFKEAFQLFDRTGDGKILYSQCGDVMRALGQNPTNAEVMKVLGNPKSDEMNLKTLKFEQFLPMMQTIAKNKDQGCFEDYVEGLRVFDKEGNGTVMGAEIRHVLVTLGEKMTEEEVEQLVAGHEDSNGCINYEELVRMVLSG
chain 3: SSKRAKAKTTKKRPQRATSNVFAMFDQSQIQEFKEAFNMIDQNRDGFIDKEDLHDMLASMGKNPTDEYLEGMMSEAPGPINFTMFLTMFGEKLNGTDPEDVIRNAFACFDEEASGFIHEDHLRELLTTMGDRFTDEEVDEMYREAPIDKKGNFNYVEFTRILKHGAKDKDD
